Earlier results as cited in US20250320497A1, “COMPOSITIONS AND METHODS FOR TREATING HEPATITIS B VIRUS (HBV) INFECTION AND HBV-ASSOCIATED DISEASES” (priority 2022, published 2025).

Test system: chronic HBV infection
Settings: Phase 1, patients with chronic HBV infection

B1: GC 1102: fully human anti-HBsAg mAb in development for chronic HBV infection (antibody, chains of the INN, looked up, V domains shown)
VH: EVQLVESGGGLVKPGGSLRLSCSASGFSLTKYKMTWVRQAPGKGLEWVSSISSTSRDIDYADSVKGRFTISRDNAKNSLFLQMSSLRVDDTAVYYCTRDGWLWGWDVRSNYYYNALDVWGQGTTVTVSS
VL: DIVVTQSPSSLSASVGDRVTITCRASQGIYNSIAWYQQKPGKAPKLLLYSTSTLLSGVPSRFSGSGSGTDYTLTITNLQPEDFATYYCQQYFVTPETFGQGTKLEIK
With B1 as the molecule, how does the “lowering of HBsAg” value read?
Its value is 2-3 log10 IU/mL.

What about the tolerability of the same molecule?
The tolerability was “well tolerated”.
